According to the domain aggregation screens of Martell et al. (2025):

Experiment: soluble fraction after stress (log2 fold change); higher = more stays soluble; pooled small domains, quantitative proteomics
Details: stress: pH 4
Procedure, shortened: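 Custom libraries of small protein domains were pooled and exposed to pH 4. High-throughput quantitative proteomics then measured the log2 fold change in the amount of each domain still soluble, with higher values meaning more stayed soluble. This soluble-fraction fold change stands for aggregation propensity.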
For “HMSDAKKRAFSKDEILYSLKNRPFTSFDIESLFDDESKKTFIGLLDKGEISEKKVAGTIFYYLR”, the “soluble fraction (log2)” value was -0.461. For “HMSDEEAISKLPGVGPAILEKLKEAGYNDIMTIAVDSPKNLAELAEIGEPTAAKIIAAAKKAAD”, the “soluble fraction (log2)” value was -0.109. With “HMSDIDIDVENDRAALAIAGGKLNHLVGARGEVLDALQELTRLAVQTSLGERSRLMLDIDNFRSD” the “soluble fraction (log2)” value was 0.0463. For “HMSDIHARIAAALAALTSPEKIHDLVVDDDGKVSFTFHLTREDPATLVRDARKAVQAVDGVRDVKVNVVDP”, the “soluble fraction (log2)” value was 0.00539. In the case of “HMSDKEDIDKYLLTYGDLLFNRTNSSEWVGKTAIYRGEVSAIYAGYLIRIRSFLDAEYLNSVMNSKYA”, the “soluble fraction (log2)” value was -0.485. In the case of “HMSDKTSLTDDDKALINSMLPDYDKYPSVAKLQAVEIAKSSSKMATLLMLDERYNETVSEALE”, the “soluble fraction (log2)” value was -1.14. In the case of “HMSDLGEIEKIVDEVLAENITKVQEYKDGKKGLMGMFMGQIMKKSGGKADPKIANQLLTEKL”, the “soluble fraction (log2)” value was 0.138. For “HMSDNHYLLEIFLADLKSDEKFIRELAIFQLHHHIESDKVRAELKAAAETESDPYLKGMIESLLSSTS”, the “soluble fraction (log2)” value was -1.2. In the case of “HMSDNYYSILGIETDATTDMIKRAYRRLSLELHPDRTKDNPILTEKYKKVNEAYGVLNDNDRKHIYDLQNI”, the “soluble fraction (log2)” value was -1.37. In the case of “HMSDPELAIPRVVGLSGNDAQAALVKAGFSAVTVVTVKNSEVTSEQVTHVVPAEGAKAKASTPVTVVVSSS”, the “soluble fraction (log2)” value was 0.15. In the case of “HMSDRQLKRQANILYTTRKLASKVGYDGLTMRGLAEASEVSPKTLYNLFSSKDELLAAALEDLVGIV”, the “soluble fraction (log2)” value was 0.0711. In the case of “HMSDTFTITTESGRIDKIITAHETTHTRSQVQKWLQDGLVTVNGNPVKANFKVTAGDVVTVTIPEVK”, the “soluble fraction (log2)” value was -0.0373. In the case of “HMSDTMTVTNVKYAIYLRSTPSEASDANIIMEIPVGSKVTYLDTPNNTFYKISYGGTVGYSKQIYLTF”, the “soluble fraction (log2)” value was -0.482. For “HMSDVLPEAILERRLVKKGNRAVPQVLIKWTKLPATSATWEDFYVLQQRFPTALAWGQAPSPGGQM”, the “soluble fraction (log2)” value was -0.213. For “HMSDVTPDVVRALRKRLKLTQVQFGEIFGMTSKKVSAWEHGKAEPTEEQKQKIQSLLKENNEQ”, the “soluble fraction (log2)” value was 0.141. With “HMSEATTVNYKYAVTISDLRIRKGPGTNYGSVGYTGKGVFTIVAEKGGWGKLKSGAGWISLNSKYGHKVS” the “soluble fraction (log2)” value was -0.314. With “HMSEEAMVSNFRQQEILELARKDGKVTVDGLAELYDVTVQTIRRDLSDLADSGRLKRVHGGAVVPS” the “soluble fraction (log2)” value was -0.465. With “HMSEFGENLKKLRTARDLTQQELGAKVGLSKAVVSKYENGLGYPTFDVLIRIAAYFGVTTDYLLGV” the “soluble fraction (log2)” value was -0.309. In the case of “HMSEFSDRFRLLKDESGATLKELSEQLDITVPNLSYYMKGREPSYDILIKIADYFGVTTDWLIGRTDER”, the “soluble fraction (log2)” value was -0.643. In the case of “HMSEILQLINKIDKKLEKGYTFANISRNHYEKIYKEEILNLYKTSKLKGEAEDSIKEVLESLLGDLRKP”, the “soluble fraction (log2)” value was 0.368. For “HMSEISAEAGKRIRYFRKSRSMTLEELAAVIHKSKATLSKYETGEISIDLDTLYDLAVALQVRAEQLLPAS”, the “soluble fraction (log2)” value was -0.764. With “HMSEITMMQMEIPEGHNWENRLVKDVSMPTGSLAVMIKRHGETLIPGGDTRILAGDTIVLSVPAYESG” the “soluble fraction (log2)” value was -1.03. With “HMSEIYVDDINRKILYLLSQGIKTKSLLEHIPLSMSGIEKRKKQLKMLFSVEDGKDETLLEMAKEKGF” the “soluble fraction (log2)” value was -1.07. In the case of “HMSEKAQSENEDLIKILALLIHAAKIDENYSEKEKKLIISFAEMSSNKKLDREQINSLVDKAEQYEK”, the “soluble fraction (log2)” value was -0.507. For “HMSEKLLTLNEISEKLRVSRHTVQAWVSPSSPNHRPEFSSLARHAGRKTVFLESDVDAWLAQRR”, the “soluble fraction (log2)” value was -0.385. For “HMSEKYPPIDWNNIKTGQSVLIKDINQVVSLTKLPDSKGFAEVQMGLIKTKIKAEKLAATDKKPNK”, the “soluble fraction (log2)” value was -0.0179. In the case of “HMSELDSYIGARLRMRRLMLGMSQEALGEKLSLTFQQIQKYEKGTNRVSASRLYELAQVLDVPVQFFFDGA”, the “soluble fraction (log2)” value was -1.39. With “HMSENDTILAKFASIINNKSLELVIFPDTAYLKGQVSTPEDKARAETVAQSLLGSKPLISLIEFE” the “soluble fraction (log2)” value was -0.167. In the case of “HMSENPLTSREIEIVQLLANGKTTKSIAEELHLSNGTIRNYVSIVLDKLNVSNRIEAIRKALDKGWL”, the “soluble fraction (log2)” value was -0.0724. For “HMSEPQEISYSDFIEQVNRNEIRQVEFDGQHEYLTVIRKDTSRFKVIIPAPDPRLLDDLMEHDVEIVGKE”, the “soluble fraction (log2)” value was 0.0554. For “HMSEQYEQIQLALKTLTQDEQDIVRLVVVEGASLRTAGKNLGVSAMTIQRRLKRALARLRDLLAS”, the “soluble fraction (log2)” value was -0.858. For “HMSESKYKMIKNWIKSKILDGTLVPNQKIYSESELMEIFDVSRHTVRLAIGELVSEGYLFKRQGTGTFVTQ”, the “soluble fraction (log2)” value was -0.763. With “HMSETTSRVLQLLGLLQARRVWTGQELADRLGVTGRSVRRDIERLRDLGYPVHASKGRDGGYQLGA” the “soluble fraction (log2)” value was -0.222. In the case of “HMSEYILATNDGEFLRITSYSKEEGGMLVWEKTSSIVSAEHKVIPYSQIINIKDRNGDVVWDKD”, the “soluble fraction (log2)” value was -0.0816. With “HMSEYNPGIYRVTDPALNIRTGPGVEYPVVGVIKDQGSYTITEIRNKSWGRLLSGAGSTAIKHIVFT” the “soluble fraction (log2)” value was -0.173. In the case of “HMSFEITGDELILRFVKDKGGATTEQIRKHWEASNRGGKSDNNLTNLVKSGKLLRSKDPNGPGSLYTAS”, the “soluble fraction (log2)” value was -0.749. With “HMSFESMGLTPRQADVLTLLLQGKSNKDIARRLVLSVETVKDHVQAVLRALGVSSRTQAVLAVGQMTQQ” the “soluble fraction (log2)” value was -0.37. For “HMSFGYFQLRAKDPQKLKSVLEKIPQIQSIKEEKGDLIGYLNADMEAEELSQKLAAAKIFVTHMAKKK”, the “soluble fraction (log2)” value was 0.216. In the case of “HMSFISRMVVAVEDIALSTRPNSTPSGDKYVSKGTVLLMEKRENDWVEVRQPSSPLSGWAPKTSLLSV”, the “soluble fraction (log2)” value was -0.426. With “HMSFNLSETKKLILEEIQKGVSSVTQIAATAGISKGMTYNHLRELKLMGYIADGDSGYVITDAGKIAS” the “soluble fraction (log2)” value was -0.323. In the case of “HMSFRYLHVKRQLMSLIGTMNAHERLPSRTDLSETFQVARTTIERAISELIGEGWLYARDGSGTYVAER”, the “soluble fraction (log2)” value was -0.919. With “HMSFSTHHEYYIYNLAVDMRKGYDGLSGLVVNELGRQPWDGSVYVFFNTMRDKVKLLVWDTDGYVIYSKR” the “soluble fraction (log2)” value was -0.505. For “HMSFTDLILKSANAIDEMGGIWENGKQILGEKAIAIHEEIVDNGLNPDKDGFYKLANGQMIQYG”, the “soluble fraction (log2)” value was -0.85. For “HMSFVEVTVSELKNYVNSHARIKLKSGKEFKGFILDANEEGVIIKVQLRGGTAESTISYNRIDRAAVF”, the “soluble fraction (log2)” value was -1.11. With “HMSGAERAAALLVALGPEVASEIMKFLDDESIQKLASEIAKIEVLSPQEKEDLIGQFLLELKKT” the “soluble fraction (log2)” value was -0.982. In the case of “HMSGAWEVGLLRQFTDWMGTQYNAYAGRNFDAITVAQVAEKNPELLTPFVESFFKERVEPALAAG”, the “soluble fraction (log2)” value was -0.589. For “HMSGEDYLERILMLKEKHGNVRAIDIANSMNFSKPSVSIALHKLSENGYVVIQNNGAIELTEKGLEVAT”, the “soluble fraction (log2)” value was -0.0506. With “HMSGEIPFPPAFKPSADHIAIASEKGINIETELLNFRDYHQARGTKLIDWNSAFRVWLRNAR” the “soluble fraction (log2)” value was -0.869. With “HMSGEITVPNLIGVEAIQAKTLLIQAGFLIKEFYDLDSTQPAGVVIRQAPEAGTTQTIGKSVTITINKQ” the “soluble fraction (log2)” value was 0.106. With “HMSGENAVLTEGTMVTVRRGGETITATARKETVKQFLSRMDIIPGSREMVGIELMENSVMLTISD” the “soluble fraction (log2)” value was -1.02. With “HMSGFPTDAQIVREIRNILPTLENPTPRMVRKALENTFEVDMGESKTKKYINNIIITEYEKWSSVQSIRE” the “soluble fraction (log2)” value was -0.804. With “HMSGGNTSAFKGKLNYEYRGNDTIITGSTYPVKELIKKAGGRWDPGSSAWIIKGRHVSDNEIF” the “soluble fraction (log2)” value was -0.317. With “HMSGQKDVPDLYGMTVKQAKKEVEAAGFKLKEGKEVYSNDYSKGQIAEQDPESGSKAKKGSSITVHVSKG” the “soluble fraction (log2)” value was 0.22. In the case of “HMSGRIWTDNYGRTIEADVIKVNINRTVLLEFTDKKTKTVSFDTFISKDIQYLEYLLTRRNRGKL”, the “soluble fraction (log2)” value was -1.14. With “HMSGRVPTADDIAVGMKVYVPRLGGTGTVVTEPVRDKVVIQVGSLRLHAEVAELLLPDEHGRIQVPR” the “soluble fraction (log2)” value was -0.127. For “HMSGTGSYVALLRDPQGNVGKVVVKGSKGEQVLSQPQQAARLDGATPSYEVTGRQIAEDFGRALAV”, the “soluble fraction (log2)” value was -0.198. With “HMSGTYIATVEAGSLDIYKSMTSNETIGKASRGDVFQILEDMGSGYARVSYNDVEGYMSIKTGDASIEEL” the “soluble fraction (log2)” value was -1.83. For “HMSGVSESIEKKIQYLLLEKPLPLHDLIEAIEIGKEEDRLKVLRSLMDSDTVKIEDDLYHWNA”, the “soluble fraction (log2)” value was -0.393. In the case of “HMSGYSTLFTRMSREDAQAVVSLLQDDGIEYRYNDDTGTVQVPSATVDQTRAKLVSAGYPRS”, the “soluble fraction (log2)” value was -0.303. In the case of “HMSHANAALTPRARLRLAKLIVEEHWPVATAAKMFMVSPPTARKWATRFRAEGPAGMADRSSRP”, the “soluble fraction (log2)” value was 0.123. In the case of “HMSHFRMLPSITEADAFLKSRSLPAGLEVREQVDAFLAQARQTLALAQEAPWLSKQEVLETLADEFVQTS”, the “soluble fraction (log2)” value was -1.25. In the case of “HMSHFSERLKSLRQQSSITQAKLADDLNVTKSLISMYESGQRLPSFEMLETIADYFNVPLSSLV”, the “soluble fraction (log2)” value was -0.51. In the case of “HMSHGFFTLQSDDLNLLRTVLEGHSSIGDIKIEGIQLVAYLKEPLNGAELNKILFEKGINLSYLVHRK”, the “soluble fraction (log2)” value was -1.52. With “HMSHGFVHLKGAVQHPGIYPVKENTRWDEVVKAAGGLTAAADIQQVNLAKVASDQESLYVPEKGET” the “soluble fraction (log2)” value was 0.161. With “HMSHGSIYFSGKTGLKGSVDINGTVNSINKKIFLKPGNYNFLIKADGYKNLKGSFQISKGDKKFVELVLIP” the “soluble fraction (log2)” value was -0.0804. For “HMSHGYVELKAENNDALISALENHTWFENIKLDPETNLVKAILTKPIEAENLNKMLFEKGIILSHLVKRK”, the “soluble fraction (log2)” value was -0.286. In the case of “HMSHYDILEVDPKASATEIKQSFRKKSLQYHPDRNKSSDAHEYMTKITEAYNILGDKDKRRHYDMELKL”, the “soluble fraction (log2)” value was 0.172. For “HMSHYEYKVGDRVNLLDYDDFGILYKEKDNFYNVVVYYNGEFVEVNVKRITLEVAAKELYPEGYDLSTLFV”, the “soluble fraction (log2)” value was -2.41. With “HMSIASASVKEKIRDIVSSEPPQKPFSDAKIAEILAEDGIAIARRTVAKYREEIGIPTKSLRKR” the “soluble fraction (log2)” value was 0.292.
